Data as given in patent US20230295310A1 (ABCELLERA BIOLOGICS, published 2023).

How the values were obtained:
[1] = biological target: T1, human CD3 expressed on cells (Jurkat cells; human primary T cells) (human, UniProt P07766 23-207; P04234 22-171; P09693 23-182); test: flow cytometry, 25 nM, Jurkat cells
T1 construct: whole, on cells
Procedure: (§1) Purified antibodies were confirmed to bind CD3 expressed on cells using the CytoFLEX S or LX flow cytometers (Beckman Coulter). Antibodies were diluted to 25 nM in FACS buffer (PBS+2% FBS) and were incubated with CD3-expressing cells for 30 minutes at 4° C. […] The median fluorescence intensity of the binding signal for each antibody was normalized to the isotype control to obtain a fold over isotype value. An antibody with a fold over isotype (FOI) of ≥10 was considered to be positive for binding.

[2] = biological target: T1, human CD3 expressed on cells (Jurkat …); test: flow cytometry, 25 nM, human primary T cells
Procedure: as §1

[3] = biological target: T2, cynomolgus monkey CD3 expressed on cyno primary T cells (cynomolgus monkey, UniProt Q95LI5 22-198; Q95LI8 22-171; Q95LI7 23-181); test: flow cytometry, cyno primary T cells
T2 construct: whole, on cells; CD3 complex on purified cynomolgus monkey CD3 pan T cells; also called cyno CD3
T2 sequence (Q95LI5 22-198, chain 1 of 3): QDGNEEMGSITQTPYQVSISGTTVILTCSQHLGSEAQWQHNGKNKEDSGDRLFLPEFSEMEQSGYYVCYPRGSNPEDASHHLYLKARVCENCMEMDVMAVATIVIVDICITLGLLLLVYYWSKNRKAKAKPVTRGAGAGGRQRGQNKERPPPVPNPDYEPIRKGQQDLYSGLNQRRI
T2 sequence (Q95LI8 22-171, chain 2 of 3): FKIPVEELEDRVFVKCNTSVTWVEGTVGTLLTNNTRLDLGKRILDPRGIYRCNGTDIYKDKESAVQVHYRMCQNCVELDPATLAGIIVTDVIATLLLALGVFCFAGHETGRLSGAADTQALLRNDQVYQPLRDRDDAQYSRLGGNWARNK
T2 sequence (Q95LI7 23-181, chain 3 of 3): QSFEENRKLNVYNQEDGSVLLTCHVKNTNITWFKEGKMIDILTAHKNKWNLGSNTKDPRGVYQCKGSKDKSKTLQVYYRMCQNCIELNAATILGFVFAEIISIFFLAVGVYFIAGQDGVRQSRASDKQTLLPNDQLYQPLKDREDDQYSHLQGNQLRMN
Procedure, shortened: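 Binding reported as fold over isotype: median fluorescence intensity divided by isotype control, with ≥10 scored positive. Cells were exposed to 25 nM antibody in PBS/2% FBS, 30 min, 4 °C, before flow cytometric read-out.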

T1 sequence (P07766 23-207, chain 1 of 3): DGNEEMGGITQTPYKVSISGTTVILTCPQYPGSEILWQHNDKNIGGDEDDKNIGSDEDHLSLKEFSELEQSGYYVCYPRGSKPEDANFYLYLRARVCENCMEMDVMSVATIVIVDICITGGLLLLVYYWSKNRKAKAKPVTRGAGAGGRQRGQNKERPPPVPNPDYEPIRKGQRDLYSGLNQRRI
T1 sequence (P04234 22-171, chain 2 of 3): as the sequence (Q95LI8 22-171, chain 2 of 3) above, with V5I, K15N, V20I, T32S, N33D, N34I, A64T, N74S, L83V, R141H counted along it
T1 sequence (P09693 23-182, chain 3 of 3): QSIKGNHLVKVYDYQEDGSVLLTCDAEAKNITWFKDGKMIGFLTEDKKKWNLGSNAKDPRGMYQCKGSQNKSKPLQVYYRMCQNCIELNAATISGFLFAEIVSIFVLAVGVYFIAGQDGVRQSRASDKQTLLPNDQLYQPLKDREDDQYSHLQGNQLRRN

| Binder | Binding (FOI) [1] | Binding (FOI) [2] | binding result [3] |
| --- | --- | --- | --- |
| mAb 194 (antibody, V domains shown, VH/VL only) VH: QEQLVESGGGVVQPGGSLRLSCAASGFIFSGYGMHWVRQAPGKGLEWVAIIWYNGRKTYYAESVKGRFTISRDNSKNTLSLQMNSLRVEDTAVYYCTAGQGYNWFDPWGQGTLVTVSS VL: EIVMTQSPATLSVSPGERATLSCRASQSVSSNLAWYQQKPGQAPRLLIYGASTRATGIPARFSGSGSGTEFTLTISSLQSEDFAVYYCQQFNAWPLTFGGGTKMEIK | 199 FOI | 217 FOI | no binding (tested: FOI <10 (FOI >=10 = positive); 25 nM) |
| mAb 206 (antibody, V domains shown, VH/VL only) VH: QVQLVESGGGVVQPGRSLRLSCAASGFTFSGYGMHWVRQAPGKGLEWVAIIYYNGNNRKYADSVKGRFTISRDNSKNTVSLQMNSLRVEDTAIYYCTRGDGYNWFVTWGQGTLVTVSS VL: EIVMTQSPATLSVSPGERATLSCRASQSVSSNLAWYHQKPGQAPRLLIYGASTRATGIPVRFSGSGSGTEFTLTISSLQSEDFAVYYCQQYNNWPLTFGGGTKVEIK | 186 FOI | 198 FOI | no binding (tested: FOI <10 (FOI >=10 = positive); 25 nM) |
| mAb 195 (antibody, V domains shown, VH/VL only) VH: QEQLVESGGGVVQSGRSLRLSCVASGFKFSGYGMHWVRQAPGKGLEWVAIIYYDGKNKYYADSVKGRFTISRDNSKNTLYLQMNSLRAEDTAVYYCTRGAGYNWFDSWGQGTLVTVSS VL: EIVMTQSPATLSVSPGERATLSCRASQSVRNNLAWYQQKPGQAPRLLIYGVSTRATAFPARFSGSGSGTEFTLTISSLQSEDFAVYYCQQYNNWPLTFGGGTKVEIK | 170 FOI | 226 FOI | no binding (tested: FOI <10 (FOI >=10 = positive); 25 nM) |
| mAb 213 (antibody, V domains shown, VH/VL only) VH: QEQLVESGGGVVQPGGSLRLSCAASGFTFSGYGMHWVRQAPGKGLEWVAIIWYNGRKTYYAESVKGRFTISRDNSKNTLSLQMNSLRVEDTAVYYCTTGKGYNWFDPWGQGTLVTVSS VL: EIVMTQSPATLSVSPGERATLSCRASQSVSSNLAWYQQKPGQAPRLLIYGASTRATGIPARFSGSGSGTEFTLTISSLQSEDFAVYYCQQFNAWPLTFGGGTKMEIK | 192 FOI | 248 FOI | no binding (tested: FOI <10 (FOI >=10 = positive); 25 nM) |
| mAb 215 (antibody, V domains shown, VH/VL only; the VL is printed as a fragment of 18 residues only) VH: QVQLVESGGGVVQPGRSLRLSCAATGFTFSGYGMHWVRQAPGKGLEWVAIIYYNGNNRKYADSVKGRFTISRDNSKNTVSLQMNSLRVEDTAIYYCTRGDGYNWFVTWGQGTLVTVSS VL: EIVMTQSPATLSVSPGERATLSCRASQSVSSNLAWYRQKPGQAPRLLIYGASTRATGIPVRFSGSGSGTEFTLTISSLQSEDFAVYYCQQYNNWPLTFGGGTKVEIK | 167 FOI | 202 FOI | no binding (tested: FOI <10 (FOI >=10 = positive); 25 nM) |
| mAb 193 (antibody, V domains shown, VH/VL only) VH: QVQLVESGGGVVQPGRSLRLSCAASGFTFSGYGMHWVRQAPGKGLEWVAIIYYNGNNRKYADSVKGRFTISRDNSKNTVSLQMNSLRVEDTAIYYCTRGDGYNWFVTWGQGTLVTVSS VL: EIVMTQSPATLSVSPGERATLSCRASQSVSSNLAWYHQKPGQAPRLLIYGASTRATGIPVRFSGSGSGTEFTLTISSLQSDDFAVYYCQQYNNWPLTFGGGTKVEIK | 163 FOI | 206 FOI | no binding (tested: FOI <10 (FOI >=10 = positive); 25 nM) |
| mAb 196 (antibody, V domains shown, VH/VL only) VH: QEQLVESGGGVVQSGRSLRLSCVASGFKFSGYGMHWVRQAPGKGLEWVAIIYYDGKNKYYADSVKGRFTVSRDNSKNTLYLQMNSLRAEDTAVYYCTRGAGYNWFDSWGQGTLVTVSS VL: EIVMTQSPATLSVSPGERATLSCRASQSVRNNLAWYQQKPGQAPRLLIYGVSTRATAFPARFSGSGSGTEFTLTISSLQSEDFAVYYCQQYNNWPLTFGGGTKVEIK | 172 FOI | 224 FOI | no binding (tested: FOI <10 (FOI >=10 = positive); 25 nM) |
| mAb 210 (antibody, V domains shown, VH/VL only) VH: QVQLVESGGGVVQPGRSLRLSCAASGFTFSGYGMHWVRQAPGKGLEWLAIIYYNGNNRKYADSVKGRFTISRDNSKNTVSLQMNSLRVEDTAMYYCTRGDGYNWFVTWGQGTLVTVSS VL: EIVMTQSPATLSVSPGERAALSCRASQSVTSNLAWYHQKPGQAPRLLIYGASTRATGIPVRFSGSGSGTEFTLTISSLQSEDFAVYYCQQYNNWPLTFGGGTKVENK | 168 FOI | 192 FOI | no binding (tested: FOI <10 (FOI >=10 = positive); 25 nM) |
| mAb 212 (antibody, V domains shown, VH/VL only) VH: EVQLLESGGGLVQPGGSLRLSCAASGFTFSNYAMNWVRQAPGKGLEWVSAISGSRSNTYYADSVKGRFTISRDNSKNTLYLQMNSLRAEDTGVYYCAKGAYSKYPYYYYMDVWGKGTTVTVSS VL: EIVMTQSPATLSLSPGERATLSCRASQSVSSSYLSWYQQKPGQAPRLLIYGASTRAIGIPARFSGSGSGTDFTLTISSLQAEDFAVYYCQQDDNLPWTFGQGTKVEIK | 150 FOI | 160 FOI | no binding (tested: FOI <10 (FOI >=10 = positive); 25 nM) |
| mAb 214 (antibody, V domains shown, VH/VL only) VH: EVQLLESGGGLVQPGGSLRLSCAASGFTFSNYAMNWVRQAPGKGLEWVSAISGSRSNTYYADSVKGRFTISRDNSKNTLYLQMNSLRAEDTAVYYCAKGAYSKYPYYYYMDVWGKGTTVTVSS VL: EIVMTQSPATLSLSPGERATLSCRASQSVSSSYLSWYQQKPGQAPRLLIYGASTRAIGIPARFSGSGSGTDFTLTISSLQAEDFAVYYCQQDDNLPWTFGQGTKVEIK | 150 FOI | 162 FOI | no binding (tested: FOI <10 (FOI >=10 = positive); 25 nM) |

Further lines, with some results ahead:

| Binding (FOI) [1] | Binding (FOI) [2] | Binder | binding result [3] |
| --- | --- | --- | --- |
| 181 FOI | 239 FOI | mAb 221 (antibody, V domains shown, VH/VL only) VH: QVQLVESGGGVVQPGGSLRLSCAASGFTFSGYGMHWVRQAPGKGLEWVAIIWYNGRKTYYAESVKGRFTISRDNSKNTLSLQMNSLRVEDTAVYYCTAGQGYNWFDPWGQGTLVTVSS VL: EIVMTQSPATLSVSPGERATLSCRASQSVSSNLAWYQQKPGQAPRLLIYGASTRATGIPARFSGSGSGTEFTLTISSLQSEDFAVYYCQQFNAWPLTFGGGTKMEIK | no binding (tested: FOI <10 (FOI >=10 = positive); 25 nM) |
| 175 FOI | 245 FOI | mAb 219 (antibody, V domains shown, VH/VL only) VH: QEQLVESGGGVVQPGGSLRLSCAASGFMFSGYGMHWVRQAPGKGLEWVAIIWYNGRKTYYTESVKGRFTISRDNSKNTLSLQMNSLRVEDTAVYYCTAGQGYNWFDPWGQGTLVTVSS VL: EIVMTQSPATLSVSPGERATLSCRASQSVSSNLAWYQQKPGQAPRLLIYGASTRATGIPARFSGSGSGTEFTLTISSLQSEDFAVYYCQQFNAWPLTFGGGTKMEIK | no binding (tested: FOI <10 (FOI >=10 = positive); 25 nM) |
| 179 FOI | 192 FOI | mAb 218 (antibody, V domains shown, VH/VL only) VH: QVQLVESGGGVVQPGRSLRLSCAASGFTFSGYGMHWVRQAPGKGLEWVAIIYYNGNNRKYADSVRGRFTISRDNSKNTVSLQMNSLRVEDTAIYYCTRGDGYNWFVTWGQGTLVTVSS VL: EIVMTQSPATLSVSPGERATLSCRASQSVSSNLAWYYQKPGQAPRLLIYGASTRATGIPVRFSGSGSGTEFTLTISSLQSEDFAVYYCQQYNNWPLTFGGGTKVEIK | no binding (tested: FOI <10 (FOI >=10 = positive); 25 nM) |
| 176 FOI | 199 FOI | mAb 226 (antibody, V domains shown, VH/VL only) VH: QVQLVESGGGVVQPGRSLRLSCAASGFTFSGYGMHWVRQAPGKGLEWVAIIYYNGNNRKYADSVKGRFTISRDNSKNTVSLQMNSLRVEDTAIYYCTRGDGYNWFVTWGQGTLVTVSS VL: EIVMTQSPATLSVSPGERATLSCRASQSISSNLAWYHQKPGQAPRLLIYGASTRATGIPVRFSGSGSGTEFTLTISSLQSEDFALYYCQQYNNWPLTFGGGTKVEIK | no binding (tested: FOI <10 (FOI >=10 = positive); 25 nM) |
| 181 FOI | 212 FOI | mAb 224 (antibody, V domains shown, VH/VL only) VH: QVQLVESGGGVVQPGRSLRLSCAASGFTFSGYGMHWVRQAPGKGLEWVAIIYYNGKKEYYADSVKGRFTISRDNSKNMLYLQMNGLRAEDTAIYYCTRGEGYNWFDPWGQGTLVTVSS VL: EIVMTQSPATLSVSPGERTTLSCRASQSVSNNLAWYQQKPGQAPRLLIYGASTRATGIPARFSGSGSGTEFTLTISSLQSEDFAVYYCQQYNNWPLTFGGGTKVEIK | no binding (tested: FOI <10 (FOI >=10 = positive); 25 nM) |
| 180 FOI | 216 FOI | mAb 222 (antibody, V domains shown, VH/VL only) VH: QVQLVESGGGVVQPGRSLRLSCAASGFTFSGYGMHWVRQAPGKGLEWVAIIYYNGKKEYYADSVKGRFTISRDNSKNTVYLQMNSLRAEDTAVYYCTRGEGYNWFDPWGQGTLVTVSS VL: KIVMTQSPATLSVSPGERATLSCRASQSVSSNLAWYQQKPGQAPRLLIYGASTRATGIPARFSGSGSGTEFTLTISSLQSEDFAVYYCKQYNNWPLTFGGGTKVEIK | no binding (tested: FOI <10 (FOI >=10 = positive); 25 nM) |
